Assay [1] deals with pMHC-E6, HLA-A*02:01-[…] monomer (refolded, soluble) (human; human papillomavirus (HPV)).
Assay [2] has as its target T1, E7 peptide (…) in complex with HLA-A*02:01 on T2 cells (human; human papillomavirus (HPV)).
T1 construct: whole, on cells
As to the kind of experiment: FACS on 293E7 cells, APC-anti-Flag; nanobody concentration not given.

Changes are numbered by the printed parent chain.

B1: single-domain antibody F5 (camel VHH nanobody) (VHH)
VHH: EVQLVESGGGSVQAGGSLRLSCAASGFTFSNNRMGWVRQAPGKGLEWVSDINSSGGVTEYADSVKGRFTISRDNAKNTLYLQLNSLKIEDTAIYYCVYYSYLMRLRPGQGTQVTVSS
notes: also called VHH F5; nanobody F5
B1: the affinity in assay [1], expressed as Kd, was 1500 nM. Further, in assay [2], the binding result is “no binding”.

B2: single-domain antibody G9 (camel VHH nanobody) (VHH)
VHH: B1 VHH with S11L, A14P, A23V
notes: also called nanobody G9
For the molecule B2, the binding result in assay [2] is on record as “no binding”.

Source of the values: US20260070960A1 (US Dept. of Health and Human Services, published 2026).
